According to the nanobody polyreactivity screen of Harvey et al. (2022):

Assay: yeast display, Sf9 membrane polyspecificity reagent, FACS + sequencing; frameworks hold sequencing errors
Method in brief: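 Galactose-induced (36–48 hours) yeast carrying a synthetic nanobody display library were exposed to 10% biotinylated, detergent-solubilized Sf9 membrane reagent at 4 °C for 1 hour. FACS followed streptavidin microbead enrichment, using low and high (top ~1%) gates for expression (anti-HA) and reagent binding (streptavidin). Colony PCR, MiSeq 2 × 250 sequencing and CDR-length filtering followed. Labels for polyreactivity reflect the gate of origin.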

Row | Sequence | polyreactivity (PSR sort gate)
1 | QVQLVESGGGLVQAGGSLRLSCAASGRTFRHNAMGWYRQAPGKERELVAAISKSGGRTYYADSVKGRFTISRDNAKNTVYLQMNSLKPEDTAVYYCAAPLYVSTSGEVGYWGQGTQVTVSS | high polyreactivity
2 | QVQLVESGGGLVQAGGSLRLSCAASGLTFPPYAMGWSRQAPGNERELVAAISRIRGRTYYADSVKGRFTISRDTAKNTVYLQMNSLKPEDTAVYYCAADGIKGGDEYDYWGQGTQVTVSS | high polyreactivity
3 | HVQLVESGGGLVQAGGSLRLSCAASGRIFGAYAMGWYRQAPGKEREFVAAITSRGGNTYYADSVKGRFTISRDNAKNTVYLQMNSLIPEDTAVYYCAARHDKRRQYYVGQSAFDYWGQGTQVTVSS | low polyreactivity
4 | QVQLVESGGGLVQAGGSLRLSCAASGSTFSFYAMGWDRQAPGKERELVAAIRAGTRTYYADSVKGRFTISRDNAKNTVYLQMNSLKPEDTAVYYCAATRRRYPYYYWGQGTLVTVSS | high polyreactivity
5 | QVQLVESGGGLVQAGGSLRLSCAASGFIFGVYAMGWYRQAPGKEREFVAAISWTGGSTSYADSVKGRFTISRDNAKNTVYLQMNSLKPEDTAVYYCARRRSYKRRFDYWGQGTQVTVSS | low polyreactivity
6 | QVQLVESGGGLVQAGGSLRLSCAASGSTFRWNAMGWYRQAPGKERELVAAISNGGSTNYADSVKGRFTISRDNAKNTVYLQMNSLIPEDTAVYYCATDGWYGQHYYDYDFDYYYWGQGTQVTVSS | low polyreactivity
7 | QVQLVESGGGLVQAGGSLRLICAASGRILDIYALGWYRQAPGKERELVASISGSGSSTYYADSVKGRVTISRDNAKNTVYLQMNSLKPEDSAVYYCNAARSQGYEYATYGYWGQGSQVTVSS | low polyreactivity
8 | QVQLVESGGGLVQAGGSLRLSCAASGSTFYAYAMGWYRQAPGKERELVAAISSDGTNYADSVKGRFTISRDNAKNTVYLQMNSLKPEDTAVYYCAADEASSRGYYDYDYWGQGTQVTVSS | low polyreactivity
9 | QVQLVESGGGLDQAGGSLRLSCAASGFIFRYYTMGWYRQAPGKERELFATITSGGSTYYADSVKGRFTISRDNAKNTVYLQMNSLKPEDTAVYYCAKYHSLRRQYSKFRPTFDYWGQGTQVTVSS | high polyreactivity
10 | QVQLEESGGGLVQAGGSLSLSCAASGSNFVYNAMGWYRQAPGKERELVAVINSGGSTNYADSVKGRFTISRDNAKNTVYIQKNSRKPEDTAVYYCAADRLAVHYYSWYNYWGQGTQVTVSS | low polyreactivity
11 | QVQLVESGGGLVQVGGSLRLSCDASGITLSYYAMGWYRQAPGKVRELVASITVSRTSTYYADSVKRRFTISRDNAKNTVYLQMNSLKPEDTAVYYCAAYAFQYRFSGYGYWGQGTQVTVSS | low polyreactivity
12 | QVQLVESGGGLLQAGGSLRVSCAASGSIIFFYAMGWYRQAPGKERELVAAISKSPSSTYYADSVKGRFTISRDNAKNTVYLQMNSLKPEDTAVYYCNTGYSGIQYYYWGQGTQVTVSS | low polyreactivity
13 | QVQLVESGGGLLQAGVTLRLSCAPSGFTQDSYSMGWYRQAPGKERELVARIRWSGGSTYYADSVKGRFTISRDNAKNTVYLQMNSLKPEDKAVYYCAADRPYYFLPYSTYTNYDSWGQGTQVTVSS | low polyreactivity
14 | QGQLLESAGGLLQAGGSLRLSSAASGFNFQQYVMGWYRQARGNERELVASISRRGSRTYYADSVKGGFTISRDNAKNTVYLQMNSLKPEDTAVYYCAAPPSTSEGPYGYWGQGTQVSVSS | high polyreactivity
15 | QVKLVESGGGLVQAGGSLRLSCAASGSTFSPYVKAWYRQAPGKERELVAAIRYRGGSTYYADSVKGRFTISRDNAKNTVYLQMNSLKPEDTAVYYCATKRSHYSGGYWGQGTQVTVSS | high polyreactivity
16 | QVQIVVSGGGLVQAGGRRRLSCAASGRFFWVYAMGWYRQAPGKERELVAAISRSGGITSYADSVKGRYTISRDNANYTVYLQMNSLKPEDTAVYCCAARSYFDGFYYWGQGAQVTVSS | high polyreactivity
17 | QVQLVESGGGLVQAGGSLRLSCAASGRIFERYAMGAYRQAPGKERELVAAISVSGSGTFYADSVKGLFTISRDNAKNTVYLQMNSLKTEDTAVYYCAADASLLGLFQGYDYWGQGTQVSVSS | low polyreactivity
18 | QVQHVESGGGLVQAGGSLRLSCAASGRIFHFNAMGWYRQAPGKERELVAAISYRGGSTYYADSVKGRFTISRDNAKNTVYLQMNSLKPEDTAVYYCAAYTRHSARTYYYSYDYWGQGTQVTVSS | high polyreactivity
19 | QVQLVESGGGLVQARGSLRLSCAATGRTFQIYAMGWYRQAPGKERELVAAISSGGRTNYADSVKGRFTISRDNAKNTVYLQMNSLKPEDTAVYYCAKRWARPGMDYWGQGTQVTVSS | high polyreactivity
20 | QVQLVESGGGLVQAGGSLRLSCAASGSIFPFNAMGWYRPAPGKERELVAAITSGGSTNYADSVKGRFTISRDNAKNTVYFQMNSLKPEDTAVYYCAADWRYWRWAFDYWGQGTQVTVSS | high polyreactivity
21 | QVQLVESGGGLVQAGGSLRLSCAASGGTFTHNAMGWYRQAPGKDWELVAAISRSGGSTSYADSVKGRFTISRYNAKNTVYLQMNSLKPEDTAVYYCADRISRQRSYSRDYWGQGNQVTVSS | high polyreactivity
22 | QVQLVESGGGLVQAGGSLRLSCAASGRTFKDYAMGWDIQEPGKERELVAAISWSGGDTYYADSVKGRFTISRDNAKNTVYLQMNSLKPEDTAVYYCNADPSGVFFYSLEFDYWGQGTQVTVSS | low polyreactivity

Row | Sequence | polyreactivity (PSR sort gate)
23 | QVQLVESGGGLVQAGGSLRLSSAASGRIFGVYAMGWYRQAPGKERELVAAITRSGGSTYYADSVKGRFTISRDNAKNTDYLQMKSLKPEDTAVYYCNRDFRGLAYSDRYDYWGQVTQVTVSS | low polyreactivity
24 | QVQLVESGGGLVQAGGSLRLSCAASGFTSRKNAMGWYRQAPGKERELVAAITQSSGRTYYADSVKGRFTISRDNAKNTVYLQMNSLKPEDTAVYYCAARRGGEDDYWGQGTQGTVSS | low polyreactivity
25 | QVQLVESGGGLVQAGGSLRLSCAASGSTFYSYAMGWYRQAPGKEREMVAAITRGGSTNYADSVKGRFTISRDNAKNTVYLQMNSLKPDDTAVYYCAKSKYTGTAFGGKKTWFNYWGQGTQVTVSS | high polyreactivity
26 | QVQLVESGGGLVQAGGSLLLSCAASGRIFWHNTMGWYRQAPGKERELVAGISVSGGSTYYADSVKGRFTISRDNAMNTVYLKMNSLKPEDTAVYYCAARKVTSWKAHFRFDYWGQGTQVTVSS | low polyreactivity
27 | QVQLVESGGGLVQAGGSLRLSCAASGIILYYYAMGWYRQAPGKERELVAAINWSGGSTSYADSVKGRFTISRDNAKNTVYLQMNSLKPEDTAVYYCAARLGSWHYQVWNYKYEYWGQGTQVTVSS | high polyreactivity
28 | QVQLVESGGGLVQAGGSLRLSCAASGSIFKYFTMGWYRHAPGKERELVAYISSGGSTKYADSVKGRFTISRDNAKNTVYLQMNSLKPEDTAVYYCAKRYYYFYPDYDYWGQGTQVTVSS | high polyreactivity
29 | QVQLVESGGGLVQAGGSLRLSCAASGIIFSYYAMGWYRQAPGKERELVADISSDGSTNYADSVKGRFTISRDNAKNTVYLQMNSLKPEDTAVYYCAAGYVHYGWFELDYWGQGTQVTVSS | low polyreactivity
30 | QVQLVESGGGLVQAGGSLRLTCAASGFIFNHNAMGWYRQAPGKERELVAAISSGGRTYYADSVKGRFTISRDNAKNTVYLQMNSLKPEDTAVYYCAKDTKYSSQYGKYGYWGQGTQVTVSS | low polyreactivity
31 | QVQLVESGGGLVQAGGSHRLSCASSGRTLLAYAMGWYIQAPGKEREFVDAISSRGVRTYYADSVKGRFTISRDNANNTVYLQMNSLKPEDTAVYYCASRGTKSIKDVPGIRYGYWGQGTQVTVSS | high polyreactivity
32 | QVQLVESGGGLVQAGGSLRLSCAASGSTFYKYAMGWYRQAPGKERELVAAITGSGGGTYYADSVKGRFTISRDNGKNTVYLQMNCLKPEDTAVYYCAARRVRSREAYDYWGQGTQVTVSS | high polyreactivity
33 | QVQLQESGVGLVQAGGSLGCAASGNISTRSEMGWYRQAPGKEREFVATINSGGITNYADSVKGRFTISRDNAKNTVYLRMNSLKPEDTAVYYREVYGYFSDPYDYWGQGTQVTVSS | low polyreactivity
34 | QVQLQESGGGLCRRAAASSGAASGTISYLNYMGWYRQAPGKEREFVAGINNGTTTNYADSVKGRFTISRDNAKNTVYLQMNSLKLEDTAVYYCAVDPYYTFYFWYWGQGTQLTVSS | high polyreactivity
35 | QVQLVESGGGLVQAGGSLRLSCAASGLTIRNYAMGWYRQAPGKERELVAAITVSGGSTYYADSVKGRFTISRDNAKNTVYLQMNSLKPEDTAVYYSSARVIHTTYSRNYYYWGQGTQVTVSS | high polyreactivity
36 | QVQLVESGGGLVQAGGSLRLSCAASGVTFIYYTMGWYRQAPGKERDLVATISRRGDSPYYADSVKGRFTISRDNAKNTVYLQMNSLKPEDTAVYYCNAVTRAAYWWTARSTDYDYWGQGTLVTVSS | high polyreactivity
37 | QVQLVESVGGLVQAGCILRLSCAPSGRIFGVNAMGWYRQAPGKVRELVAAIDWSDGSTYYADSVKGRFTISRDNAKNTVYLQMNSLKPEDTAVYYCAALPSYLAAQYGDDYWGQGTQVTVSS | low polyreactivity
38 | QVQHVESGGGLVQAGGSLRLSCAASGFIFRRNVMGWYRQAPGKERELVAAISNSGGSTYYADSVKGRFTISRDNAKNTVYLQMNSLKPEDTAVYYCAAVYSYWGRYFEYGYWGQGTKVTVSS | high polyreactivity
39 | QVQLVESGGGLVQAGGSLRLSSAASGRTFPTYTIGGYRQAPGKERELVAAITRGGSTKYADSVKGRFTISRDNAKNTVYLQMNSLKPEDTAVYYCAAVYRYRHSFAYYRHEMDYWGQGTQVTVSS | low polyreactivity
40 | QVQLVESGGGLVQAGGSLRLSCAASGINFVYYAMGWYRQAPGTEREMVAAISKSSGRTYYADSVKGRFTISRDYAKNTVYLQMNSLKPEDTAVYYCNARYRLSPPPLEYWGQGTQVTVSS | high polyreactivity
41 | QVQLVESGGGLVQAGGSLRLSCAASGIFVTYAMGWYRQAPGTERELVAAIRYSGDSTYYADSVKGRFTISRDNAKNTVYLQMNSLKPEETAVYYCAATKGWSRYEYWGQGTQVTVSS | low polyreactivity
42 | QVQLVGSGGGLLQAGASLRLSCAASGRIFRAYAMGWYRQAPGKERELVAAISWRSGSTYYADSVKGRFTISRDNAKTTVYLQMNSLKPEDTAVYYCAAYTNRVVNGYGYWGQGTQVTVSS | high polyreactivity
43 | QVQLVESGGGLVQAGGSLRLSCAASGRTFYTNALGWYRQAPGKERELVAVISRGGTTYYADSVKGRFTISRDNAKNTVYLQMNSLKPEDTAVYYCAKQRPSGDSSSQMGSWGQGTQVTVSS | low polyreactivity
